B1: LYSMD4 (parent)
chain: LLQRELAQEDSLNKLALQYGCKVA
B2: FAM50A (parent)
chain: HIFPASRWEPYDPEKKWDKYTIR
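Note: lentivirally expressed fusions sorted by FACS into six bins by GFP to DsRed ratio, PSI derived from sequencing read proportions per bin multiplied by bin number.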

In the first series the parent is B1. The series can be described thus: protein stability index of a GFP-peptide fusion (GPS, HEK-293T) (PSI 1-6); higher = more stable. The following applies: c terminus: a fixed tail appended.
Turning to LLQRELAQEDSLNKNALQYGCKVA [L15N], the protein stability index was found to be 3.75.

As to LLQRELAQEDSLNKTALQYGCKVA [L15T], the protein stability index stood at 2.93.

With LLQRELAQGDSLNKLALQYGCKVA [E9G], the protein stability index is 1.28.

LLQRELAQHDSLNKLALQYGCKVA [E9H]: the protein stability index is 2.54.

LLQRELAQPDSLNKLALQYGCKVA [E9P]: the protein stability index worked out at 1.63.

With LLQRELAQEDSLNKLALQYSCKVA [G20S], the protein stability index is 1.72.

Consider LLQRELAQEDSLNKLALQYVCKVA [G20V], for which the protein stability index was 1.31.

Regarding LLQRELAQEDSLNKLALQYYCKVA [G20Y], the protein stability index came to 1.74.

Turning to ALQRELAQEDSLNKLALQYGCKVA [L1A], the protein stability index came out at 1.96.

Take ILQRELAQEDSLNKLALQYGCKVA [L1I]: the protein stability index stood at 2.28.

With FLQRELAQEDSLNKLALQYGCKVA [L1F], the protein stability index is 1.55.

In the case of GLQRELAQEDSLNKLALQYGCKVA [L1G], the protein stability index amounted to 1.52.

For LLQRELAQEDSWNKLALQYGCKVA [L12W], the protein stability index is 1.23.

LLQRELAQEDSGNKLALQYGCKVA [L12G]: the protein stability index amounted to 3.39.

As to LLQRELAQEDSENKLALQYGCKVA [L12E], the protein stability index turned out to be 3.83.

Regarding LLQRELAQEDSLNKLALVYGCKVA [Q18V], the protein stability index came out at 2.25.

Consider LLQRELAQEDSLNKLALSYGCKVA [Q18S], for which the protein stability index was found to be 1.74.

LLQRPLAQEDSLNKLALQYGCKVA [E5P]: the protein stability index was 1.99.

As to LLQRELAQEDSLNKLALQYGCKTA [V23T], the protein stability index stood at 2.58.

As for LLQRELAQEDSLNKLALQYGCKYA [V23Y], the protein stability index is 2.45.

In the case of LLGRELAQEDSLNKLALQYGCKVA [Q3G], the protein stability index worked out at 2.85.

As to LLTRELAQEDSLNKLALQYGCKVA [Q3T], the protein stability index turned out to be 1.27.

Take LLQREWAQEDSLNKLALQYGCKVA [L6W]: the protein stability index was 1.87.

For LLQRESAQEDSLNKLALQYGCKVA [L6S], the protein stability index turned out to be 1.67.

For LLQREVAQEDSLNKLALQYGCKVA [L6V], the protein stability index was found to be 1.62.

Turning to LLQREHAQEDSLNKLALQYGCKVA [L6H], the protein stability index was 2.39.

Regarding LLQRELAQEDSLNKLALQVGCKVA [Y19V], the protein stability index came out at 2.02.

On to LLQRELAQEDSLNKLALQIGCKVA [Y19I], for which the protein stability index was determined as 1.59.

For the variant LLQRELAQEDSLNKLALQLGCKVA [Y19L], the protein stability index stood at 2.34.

As to LLQRELAQEDSLNKLALQAGCKVA [Y19A], the protein stability index turned out to be 3.17.

In the case of LLQNELAQEDSLNKLALQYGCKVA [R4N], the protein stability index came to 2.04.

LLQRELAQEDSLNKLTLQYGCKVA [A16T]: the protein stability index worked out at 1.78.

On to LLQRELAQEDSLNKLALQYGCKVC [A24C], for which the protein stability index stood at 3.03.

As for LLQRELAQEDSLNKLALQYGCKVV [A24V], the protein stability index is 3.02.

Regarding LLQRELAQEDSLNKLALQYGCKVT [A24T], the protein stability index came to 2.19.

For the variant LLQRELAQEDSLNYLALQYGCKVA [K14Y], the protein stability index came out at 2.06.

For the variant LWQRELAQEDSLNKLALQYGCKVA [L2W], the protein stability index worked out at 1.5.

Take LVQRELAQEDSLNKLALQYGCKVA [L2V]: the protein stability index came out at 2.29.

As to LFQRELAQEDSLNKLALQYGCKVA [L2F], the protein stability index was found to be 2.25.

On to LHQRELAQEDSLNKLALQYGCKVA [L2H], for which the protein stability index came to 1.02.

For the variant LLQRELMQEDSLNKLALQYGCKVA [A7M], the protein stability index was determined as 2.77.

LLQRELYQEDSLNKLALQYGCKVA [A7Y]: the protein stability index came to 2.12.

LLQRELFQEDSLNKLALQYGCKVA [A7F]: the protein stability index worked out at 2.73.

LLQRELDQEDSLNKLALQYGCKVA [A7D]: the protein stability index turned out to be 2.09.

Turning to LLQRELAQEDSLNKLALQYGCEVA [K22E], the protein stability index worked out at 3.75.

Take LLQRELAQEDSLNKLALQYGCIVA [K22I]: the protein stability index amounted to 1.78.

Regarding LLQRELAYEDSLNKLALQYGCKVA [Q8Y], the protein stability index was 2.21.

Turning to LLQRELAIEDSLNKLALQYGCKVA [Q8I], the protein stability index came out at 1.89.

As for LLQRELAQEDCLNKLALQYGCKVA [S11C], the protein stability index came out at 1.79.

Variants of B2 are the subject of a further series. Described as above. The following applies: c terminus: native.
HIFLASRWEPYDPEKKWDKYTIR [P4L]: the protein stability index is 2.56.

Regarding HIFDASRWEPYDPEKKWDKYTIR [P4D], the protein stability index turned out to be 2.22.

With HIFPASRWEPYDPEKKWDEYTIR [K19E], the protein stability index came out at 2.53.

On to HIFPAVRWEPYDPEKKWDKYTIR [S6V], for which the protein stability index amounted to 1.95.

In the case of HIFPALRWEPYDPEKKWDKYTIR [S6L], the protein stability index is 1.84.

HIFPACRWEPYDPEKKWDKYTIR [S6C]: the protein stability index came out at 1.72.

For HIFPASRWLPYDPEKKWDKYTIR [E9L], the protein stability index came out at 2.42.

For the variant HIFPASRWEPYDPKKKWDKYTIR [E14K], the protein stability index worked out at 2.27.

HIFPASRWEPYDPMKKWDKYTIR [E14M]: the protein stability index was 2.38.

Turning to HIFPASRWEPYDPEKKWDKETIR [Y20E], the protein stability index came out at 2.02.

Regarding HIFPASRWEPYDPEKKWDKVTIR [Y20V], the protein stability index amounted to 2.28.

In the case of HIFPASRWEPYDPEKKWDKWTIR [Y20W], the protein stability index turned out to be 2.96.

For HIFPASRWEPYDPEKKWDKYTFR [I22F], the protein stability index was 2.92.

With HIFPASRWEPYDPEKKWDKYTSR [I22S], the protein stability index stood at 2.72.

For the variant HIFPASGWEPYDPEKKWDKYTIR [R7G], the protein stability index worked out at 2.5.

As to HIFPASRWEIYDPEKKWDKYTIR [P10I], the protein stability index was 1.24.

Turning to HIFPASRWEWYDPEKKWDKYTIR [P10W], the protein stability index came out at 1.58.

In the case of HIFPASRWEKYDPEKKWDKYTIR [P10K], the protein stability index came out at 2.24.

Consider HIFPASRWEVYDPEKKWDKYTIR [P10V], for which the protein stability index was found to be 1.94.

As to HIFPASRWESYDPEKKWDKYTIR [P10S], the protein stability index is 2.91.

Regarding HIFPRSRWEPYDPEKKWDKYTIR [A5R], the protein stability index was determined as 1.9.

For the variant HIFPASRWEPYDPEKSWDKYTIR [K16S], the protein stability index was found to be 2.6.

In the case of HIFPASRWEPYDPEKHWDKYTIR [K16H], the protein stability index is 1.72.

Take HIFPASRWEPYDPEKFWDKYTIR [K16F]: the protein stability index is 3.28.

Consider HIFPASRWEPYDPEKDWDKYTIR [K16D], for which the protein stability index came to 1.78.

Consider HIFPASRWEPYDPEKKWDKYEIR [T21E], for which the protein stability index is 2.7.

Turning to HIFPASRWEPYDPEKKWDKYFIR [T21F], the protein stability index was determined as 2.06.

Consider HIFPASRWEPYDPEIKWDKYTIR [K15I], for which the protein stability index amounted to 1.9.

In the case of HIFPASRWEPYDPETKWDKYTIR [K15T], the protein stability index was found to be 2.33.

For HIFPASRWEPYDAEKKWDKYTIR [P13A], the protein stability index worked out at 2.44.

Take HIFPASRWEPYDEEKKWDKYTIR [P13E]: the protein stability index is 1.86.

Consider HIFPASRWEPYDPEKKWAKYTIR [D18A], for which the protein stability index was 1.96.

As for HIFPASRWEPYDPEKKWDKYTIM [R23M], the protein stability index was 2.1.

Consider HIFPASRWEPYDPEKKWDKYTIV [R23V], for which the protein stability index is 2.27.

As for HITPASRWEPYDPEKKWDKYTIR [F3T], the protein stability index is 3.

Regarding HIYPASRWEPYDPEKKWDKYTIR [F3Y], the protein stability index amounted to 2.1.

HIFPASRWEPADPEKKWDKYTIR [Y11A]: the protein stability index came out at 2.51.

In the case of HIFPASRWEPIDPEKKWDKYTIR [Y11I], the protein stability index was determined as 2.51.

For the variant HIFPASRWEPHDPEKKWDKYTIR [Y11H], the protein stability index amounted to 2.35.

Consider HIFPASRWEPFDPEKKWDKYTIR [Y11F], for which the protein stability index stood at 2.18.

For the variant HIFPASRWEPTDPEKKWDKYTIR [Y11T], the protein stability index worked out at 2.42.

EIFPASRWEPYDPEKKWDKYTIR [H1E]: the protein stability index was found to be 2.52.

Turning to HIFPASRPEPYDPEKKWDKYTIR [W8P], the protein stability index was 3.92.

On to HIFPASRYEPYDPEKKWDKYTIR [W8Y], for which the protein stability index is 2.5.

For HIFPASRWEPYDPEKKSDKYTIR [W17S], the protein stability index worked out at 3.

Turning to HIFPASRWEPYDPEKKNDKYTIR [W17N], the protein stability index was 2.54.

In the case of HIFPASRWEPYDPEKKPDKYTIR [W17P], the protein stability index was 2.56.
